Measurements taken from patent US20190161551A1 (Regeneron, published 2019).
One block for each binder: values may come before it.

Experiments:
mouse TrkB.hFc = biological target: T1, mouse TrkB.hFc (mouse); experiment: blocking ELISA: constant mouse TrkB.hFc (REGN2277) pre-mixed with antibody, binding to plate-coated BDNF
T1 construct: also called mTrkB.hFc; mTrkB-hFc
Method: (§1) Experiments were carried out using the following procedure. Human BDNF was coated at a concentration of 0.5 μg/mL (for blocking mouse TrkB.hFc interaction) or 0.3 μg/mL (for blocking rat TrkB.mmh interaction) in PBS on 96-well microtiter plate and incubated overnight at 4° C. […] In a 96-well dilution plate, 850 pM mouse TrkB.hFc or rat TrkB.mmh was mixed with the three-fold serially diluted anti-mouse TrkB antibodies and control antibody. The final antibody concentrations ranged from 1.69 pM to 100 nM. The protein-antibody mix was incubated at room temperature (RT) for 1 hour. The pre-bound mix was then transferred in duplicates to microtiter plates coated with BDNF. […] Plate-bound mouse TrkB.hFc was detected with HRP-conjugated goat anti-human Fcγ fragment specific antibody (Jackson Immunoresearch) and rat TrkB.mmh was detected with HRP-conjugated anti-histidine antibody (Qiagen). […]
(§2) The absorbance at 450 nm for each well was recorded and plotted as a function of the concentration of antibody. Data was analyzed in GraphPad Prism software using a four-parameter logistic equation over an 11-point dose response curve and IC₅₀ values were calculated. […] Percent blockade at maximum concentration of the antibody tested was calculated as an indicator of the ability of the antibodies to block the binding of TrkB to BDNF on the plate relative to the baseline of the assay. […]

[1] = biological target: T2, rat TrkB extracellular domain expressed with a C-terminal myc-myc-hexahistidine tag (rat, UniProt Q63604 32-429); experiment: blocking ELISA: constant rat TrkB.mmh (REGN1808) pre-mixed with antibody, binding to plate-coated BDNF; half-maximal enhancement of the signal, not blockade
T2 construct: also called rTrkB.mmH; rTRKB.mmH
T2 sequence (Q63604 other isoform, or with tags, fused parts or gaps): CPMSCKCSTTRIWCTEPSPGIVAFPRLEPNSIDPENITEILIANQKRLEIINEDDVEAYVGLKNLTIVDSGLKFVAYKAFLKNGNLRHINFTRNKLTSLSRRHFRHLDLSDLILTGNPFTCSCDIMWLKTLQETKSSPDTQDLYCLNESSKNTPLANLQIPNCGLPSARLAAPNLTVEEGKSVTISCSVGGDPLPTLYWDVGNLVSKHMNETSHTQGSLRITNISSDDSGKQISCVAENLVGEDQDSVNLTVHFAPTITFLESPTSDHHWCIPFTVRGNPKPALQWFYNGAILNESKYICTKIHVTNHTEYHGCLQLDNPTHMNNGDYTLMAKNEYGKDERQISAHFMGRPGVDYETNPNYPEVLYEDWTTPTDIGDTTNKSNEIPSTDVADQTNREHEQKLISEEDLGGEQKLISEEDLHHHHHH
Method: as §1, §2

[2] = biological target: T3, human TrkB extracellular domain expressed with a C-terminal myc-myc-hexahistidine tag (human, UniProt Q16620 32-430); experiment: SPR, mAb captured (anti-mFc), 37C
T3 construct: also called hTrkB.mmH; hTRKB.mmH
T3 sequence (Q16620 other isoform, or with tags, fused parts or gaps): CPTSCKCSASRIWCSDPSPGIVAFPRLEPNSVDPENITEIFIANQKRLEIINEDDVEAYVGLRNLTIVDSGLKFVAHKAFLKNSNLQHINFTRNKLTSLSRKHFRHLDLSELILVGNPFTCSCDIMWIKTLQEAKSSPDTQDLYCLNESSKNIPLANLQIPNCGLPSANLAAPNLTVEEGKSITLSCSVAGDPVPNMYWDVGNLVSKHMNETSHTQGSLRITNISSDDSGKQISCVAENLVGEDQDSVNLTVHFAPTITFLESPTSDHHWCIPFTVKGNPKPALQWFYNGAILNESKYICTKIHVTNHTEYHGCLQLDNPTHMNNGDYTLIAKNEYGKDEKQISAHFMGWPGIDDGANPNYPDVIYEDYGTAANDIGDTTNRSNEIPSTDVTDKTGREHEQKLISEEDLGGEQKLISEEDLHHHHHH
Method: (§3) Equilibrium dissociation constants (KD values) for TrkB binding to purified anti-TrkB monoclonal antibodies were determined using a real-time surface plasmon resonance biosensor using a Biacore 4000 instrument. All binding studies were performed in 10 mM Hepes pH 7.4, 150 mM NaCl, 3 mM EDTA, and 0.05% v/v Surfactant Tween-20 (HBS-ET running buffer) at 25° C. and 37° C. […] Binding studies were performed on following TrkB reagents; human TrkB extracellular domain expressed with a C-terminal myc-myc-hexahistidine tag (hTRKB.mmH; SEQ ID NO: 76; Accession number NP_001018074.1), mouse TrkB extracellular domain expressed with a C-terminal myc-myc-hexahistidine tag (mTRKB.mmH; SEQ ID NO: 79; Accession number NP_001020245), rat TrkB extracellular domain expressed with a C-terminal myc-myc-hexahistidine tag (rTRKB.mmH; SEQ ID NO: 84; Accession number NP_036863.1), and human TrkB extracellular domain expressed with a C-terminal mouse IgG2a Fc tag (hTrkB-mFc; SEQ ID NO: 77; Accession number NP_001018074.1). […] Kinetic association (kₐ) and dissociation (kd) rate constants were determined by fitting the real-time binding sensorgrams to a 1:1 binding model with mass transport limitation using Scrubber 2.0c curve-fitting software. Binding dissociation equilibrium constants (KD) and dissociative half-lives (t½) were calculated from the kinetic rate constants as: […]

[3] = biological target: T4, human TrkB extracellular domain expressed with a C-terminal mouse IgG2a Fc tag (human); experiment: SPR, mAb captured (anti-mFc), 37C
T4 construct: also called hTrkB-mFc; hTrkB.mFc
T4 sequence (chain, as listed by the source limits assumed): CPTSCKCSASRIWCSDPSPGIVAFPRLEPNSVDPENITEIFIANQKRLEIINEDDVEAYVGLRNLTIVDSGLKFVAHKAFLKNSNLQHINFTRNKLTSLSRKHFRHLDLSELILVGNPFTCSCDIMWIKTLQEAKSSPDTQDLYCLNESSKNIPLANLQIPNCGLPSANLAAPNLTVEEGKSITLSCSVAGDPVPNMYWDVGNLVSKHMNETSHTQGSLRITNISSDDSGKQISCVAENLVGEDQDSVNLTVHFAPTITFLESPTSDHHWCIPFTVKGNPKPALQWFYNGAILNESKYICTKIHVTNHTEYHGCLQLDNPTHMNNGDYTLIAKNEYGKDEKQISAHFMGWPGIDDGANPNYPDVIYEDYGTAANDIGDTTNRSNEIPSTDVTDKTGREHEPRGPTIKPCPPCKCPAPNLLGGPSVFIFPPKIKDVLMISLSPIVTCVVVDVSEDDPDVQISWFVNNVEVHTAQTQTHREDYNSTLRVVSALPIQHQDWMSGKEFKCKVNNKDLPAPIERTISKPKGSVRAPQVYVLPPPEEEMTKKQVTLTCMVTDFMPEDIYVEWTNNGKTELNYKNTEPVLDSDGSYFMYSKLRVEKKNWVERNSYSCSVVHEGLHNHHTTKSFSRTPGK
Method: as §3

[4] = biological target: T2, rat TrkB extracellular domain expressed …; experiment: SPR, mAb captured (anti-mFc), 37C
Method: as §3

T1 sequence (chain, as listed by the source limits assumed): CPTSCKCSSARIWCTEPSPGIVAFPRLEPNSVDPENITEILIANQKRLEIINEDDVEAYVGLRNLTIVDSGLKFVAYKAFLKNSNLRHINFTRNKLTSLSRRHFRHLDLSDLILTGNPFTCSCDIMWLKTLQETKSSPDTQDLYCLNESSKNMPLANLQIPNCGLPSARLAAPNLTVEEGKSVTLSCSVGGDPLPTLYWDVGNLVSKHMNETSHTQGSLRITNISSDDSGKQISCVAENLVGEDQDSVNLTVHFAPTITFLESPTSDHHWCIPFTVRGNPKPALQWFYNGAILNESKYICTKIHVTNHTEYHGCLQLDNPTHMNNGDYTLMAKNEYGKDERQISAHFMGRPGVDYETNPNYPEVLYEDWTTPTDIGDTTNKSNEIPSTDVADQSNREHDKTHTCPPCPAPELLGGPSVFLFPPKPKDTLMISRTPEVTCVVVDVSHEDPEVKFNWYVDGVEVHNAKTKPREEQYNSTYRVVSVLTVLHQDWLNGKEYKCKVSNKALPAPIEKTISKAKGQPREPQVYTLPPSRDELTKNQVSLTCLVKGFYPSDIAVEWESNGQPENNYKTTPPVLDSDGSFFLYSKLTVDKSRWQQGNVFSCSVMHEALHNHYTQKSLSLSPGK

IC50 (read off the curve) (mouse TrkB.hFc): ~0.1 nM
B1: M2aM14173N (antibody, mouse IgG2a, kappa, V domains shown)
VH: NVSLVESGGGSVKPGGSLQLSCAASGFTFSSSAMSWIRQTPEMRLEWVATISDRGSYTYYPDSVEGRFTISRDNAKNILYLQMSHLMSEDTAMYYCARGKGEKAYYTAFFAYWGQGSLVTVSA
VL: DIQMTQSPASLSASVGETVTITCRASENIYSYLAWYQQKPGKSPHLLVHNAETLAEGVPSRFSGSGSGPQFSLKINSLQPGDSGTYYCQHHYSSPWTFGGGTKLEIKR
notes: Anti-mouse TrkB antibody from hybridoma, mouse IgG2a Fc; also called surrogate anti-mouse TrkB antibody

EC50 (read off the curve) [1]: ~0.4 nM
B2: M2aM14179N (antibody, mouse IgG2a, kappa, V domains shown)
VH: EVQLQQSGPELVKPGASVKISCKASGYTLTDYYMNWVKQSHGKSLEWIGDINPNNGGTSYNQKFKGKATLTVDKSSSTAYMELRSLTSEDSAVYYCARGAYYSNYFDYWGQGTTLTVSS
VL: DIVMSQSPSSLAVSAGEKVTMSCKSSQSLLNSRTRKNYLAWYQQKPGQSPKLLIYWASTRESGVPDRFTGSGSGTDFTLTISSVQAEDLAVYYCKQSYILFTFGSGTQLEIKR
notes: as for B1

Kd [2]: 135 nM
koff [2]: 0.00831 s⁻¹
kon [2]: 61300 M⁻¹ s⁻¹
t½ [2]: 1.4 min
Kd [3]: 1.24 nM
koff [3]: 0.000292 s⁻¹
kon [3]: 235000 M⁻¹ s⁻¹
t½ [3]: 40 min
Kd [4]: 87.5 nM
koff [4]: 0.00694 s⁻¹
kon [4]: 79300 M⁻¹ s⁻¹
t½ [4]: 1.7 min
B3: H1M8037C (antibody, mouse IgG1, kappa, V domains shown)
VH: QVQLVQSGAEVKKPGASVKVSCKASGYTFTNYDIIWVRQAPGQGLEWMGYINPYNDGTKYNEKFKGRVTMTRDTSTSTVYMELSSLRSEDTAVYYCARLLKYRRFRYYAIDYWGQGTTVTVSS
VL: DIQMTQSPSSLSASVGDRVTITCRTSENVYSNLAWYQQKPGKAPKLLIYAASNLQSGVPSRFSGSGSGTDYTFTISSLQPEDIATYYCQHFWGSPFTFGQGTKLEIKR
notes: captured by anti-mFc in SPR; also called Comparator; comparator anti-TrkB monoclonal antibody
